# Assay results from paper PMC7072298 (2020).
# Molecular target: HSP90αM domain (solid phase assays of Figure 2B and 2C)
# Assay: ELISA
row,Kd [nM],Binder
1,222,45-kDa gelatin-binding FN fragment (FN45) (domain or fragment) not shown
2,65.1,N-terminal FN 30-kDa heparin-binding fragment (FN30) (domain or fragment) not shown
